Results: patent US20250171542A1 (ADEPT THERAPEUTICS, published 2025)
Each block holds one binder with its values, some of them ahead of it.

Key:
[1] = molecular target: mouse PD-L1 (Sino Biological, Cat #50010-M08H) (mouse, UniProt Q9EP73 19-238); assay: ELISA
[2] = molecular target: T1, CD86 (Sino Biological, Cat #10699-H08H) (UniProt P42081 24-245); assay: ELISA
T1 sequence (looked up): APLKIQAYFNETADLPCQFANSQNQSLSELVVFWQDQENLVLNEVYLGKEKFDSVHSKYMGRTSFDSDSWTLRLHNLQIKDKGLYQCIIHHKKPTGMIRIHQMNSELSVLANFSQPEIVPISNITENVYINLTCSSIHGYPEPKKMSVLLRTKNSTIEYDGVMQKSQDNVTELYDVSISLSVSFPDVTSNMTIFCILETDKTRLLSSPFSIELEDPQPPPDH

[3] = molecular target: T2, B7-H3 (Sino Biological, Cat #11188-H08H) (UniProt Q5ZPR3 29-461); assay: ELISA
T2 sequence (looked up): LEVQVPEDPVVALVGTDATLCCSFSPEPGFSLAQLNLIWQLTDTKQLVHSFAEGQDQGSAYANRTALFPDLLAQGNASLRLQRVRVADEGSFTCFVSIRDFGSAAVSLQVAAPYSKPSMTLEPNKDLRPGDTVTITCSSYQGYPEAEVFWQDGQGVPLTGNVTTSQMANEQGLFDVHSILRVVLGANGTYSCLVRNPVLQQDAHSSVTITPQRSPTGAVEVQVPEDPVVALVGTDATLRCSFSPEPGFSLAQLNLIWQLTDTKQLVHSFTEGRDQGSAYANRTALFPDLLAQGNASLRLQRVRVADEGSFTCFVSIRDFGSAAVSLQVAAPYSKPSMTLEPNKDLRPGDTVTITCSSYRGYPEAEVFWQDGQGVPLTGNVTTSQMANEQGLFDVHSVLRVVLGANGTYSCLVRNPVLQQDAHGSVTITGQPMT

[4] = molecular target: T3, PD-L2 (Sino Biological, Cat #10292-H08H) (UniProt Q9BQ51 20-219); assay: ELISA
T3 sequence (looked up): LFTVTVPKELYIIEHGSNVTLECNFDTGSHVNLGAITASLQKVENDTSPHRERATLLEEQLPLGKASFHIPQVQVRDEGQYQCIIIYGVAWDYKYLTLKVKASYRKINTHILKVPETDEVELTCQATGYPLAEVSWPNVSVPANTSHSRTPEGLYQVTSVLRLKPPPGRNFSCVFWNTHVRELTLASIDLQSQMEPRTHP

[5] = molecular target: T4, human PD-L1 expressed on cell surface (human, UniProt Q9NZQ7 19-290); assay: cell-based or functional assay
T4 sequence (Q9NZQ7 19-290 limits assumed): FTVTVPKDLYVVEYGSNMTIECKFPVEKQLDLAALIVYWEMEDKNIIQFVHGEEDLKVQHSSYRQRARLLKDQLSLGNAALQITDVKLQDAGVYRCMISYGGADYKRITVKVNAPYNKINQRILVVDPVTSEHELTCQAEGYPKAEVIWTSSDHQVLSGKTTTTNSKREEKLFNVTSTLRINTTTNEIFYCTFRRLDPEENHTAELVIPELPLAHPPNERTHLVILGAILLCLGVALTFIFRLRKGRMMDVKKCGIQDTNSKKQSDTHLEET

[6] = molecular target: T4, human PD-L1 expressed on cell surface; assay: cell-based or functional assay; remark: listed apart in the source
[7] = molecular target: T5, human PD-L1-mFc fusion protein (Sino Biological, Cat #10084-H05H) (human, UniProt Q9NZQ7 19-239); assay: competition ELISA, coated human PD-L1-mFc, competitor human PD-1-His-hFc-Biotin
T5 construct: Bought protein; also called human PD-L1 mouse Fc fusion protein; not shown: mouse Fc
T5 sequence (Q9NZQ7 19-239 limits assumed): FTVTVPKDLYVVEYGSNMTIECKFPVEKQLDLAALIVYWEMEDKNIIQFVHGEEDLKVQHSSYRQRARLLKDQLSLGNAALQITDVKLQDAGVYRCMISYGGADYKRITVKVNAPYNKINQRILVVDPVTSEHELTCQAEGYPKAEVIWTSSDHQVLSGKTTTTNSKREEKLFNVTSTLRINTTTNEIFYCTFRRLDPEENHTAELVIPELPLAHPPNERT
Protocol: Briefly, microplates were precoated with […] of human PD-L1-mFc fusion protein (Sino Biological, Cat #10084-H05H) diluted in 1×PBS (GIBCO) and incubated overnight at 4° C.; Plates were washed four times with 300 μl/well washing buffer (1×PBST, diluted from 20×PBST (Thermo Scientific) with distilled water)) and then blocked with 300 μl/well of blocking buffer (1×PBST/3% BSA) for 2 hours at RT on shaker (100 rpm). […] Plates were washed and added with 100 μl/well TMB substrate for color development at room temperature in dark for up to 10 minutes. After addition of 50 μl/well of stop solution (1N H₂SO₄), plates were read at 450 nm on a plate reader (SpectraMax M5).

[8] = molecular target: T6, human PD-L1-His (Sino Biological, Cat #10084-H08H) (human, UniProt Q9NZQ7 19-238); assay: competition ELISA (epitope binning): coated human PD-L1-His, antibody pre-incubated, then biotinylated Avelumab (competitor), detection with HRP-avidin
T6 construct: Bought protein; also called human PD-L1 ECD-His; recombinant human PD-L1-His protein; not shown: His tag
T6 sequence (Q9NZQ7 19-238): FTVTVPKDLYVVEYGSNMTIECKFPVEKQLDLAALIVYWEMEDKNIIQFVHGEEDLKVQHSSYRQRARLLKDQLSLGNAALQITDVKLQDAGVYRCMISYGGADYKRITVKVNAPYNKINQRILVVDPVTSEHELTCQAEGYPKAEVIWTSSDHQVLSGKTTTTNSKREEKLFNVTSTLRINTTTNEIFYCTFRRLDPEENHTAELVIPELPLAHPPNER

Sequence of mouse PD-L1 (Sino Biological, Cat #50010-M08H) (Q9EP73 19-238 limits assumed, stated change not applied): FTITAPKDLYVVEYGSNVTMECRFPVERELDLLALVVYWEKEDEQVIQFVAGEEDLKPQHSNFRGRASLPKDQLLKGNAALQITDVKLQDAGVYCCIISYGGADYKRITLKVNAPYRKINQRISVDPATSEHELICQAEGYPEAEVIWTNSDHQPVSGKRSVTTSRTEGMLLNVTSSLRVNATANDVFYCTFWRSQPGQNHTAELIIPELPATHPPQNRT

- binding result [1]: no binding
- binding result [2]: no binding
- binding result [3]: no binding
- binding result [4]: no binding
- IC50 (nM), Promega PD-1/PD-L1 blockade reporter assay [5]: 0.24 nM
- IC50 (nM), Promega PD-1/PD-L1 blockade reporter assay, another assay [6]: 0.33 nM
- IC50 [7]: 1500 pM
B1: 28B3 (antibody, human IgG1, V domains shown)
VH: QSVEESGGRLVTPGTPLTLSCTASGFSLSSYYMIWVRQAPGKGLEYIGYVYTGSGNTWYASWAKGRFAISKASTTVDLMITSPTTEDTATYFCASGADGVYDWGWDIWGPGTLVTVSL
VL: DIVMTQTPASVEAAVGDTVTIKCQASQSIYSLLAWYQQKPGQRPKLLIAGASNLESGVPSRFSGSGSGTEYTLTISALECADAATYYCQNNYDSGRIYGLAFGGGTEVVVK

- binding result [1]: no binding
- binding result [2]: no binding
- binding result [3]: no binding
- binding result [4]: no binding
- IC50 (nM), Promega PD-1/PD-L1 blockade reporter assay [5]: 0.36 nM
- IC50 [7]: 2100 pM
- IC50 (read off the curve) [8]: ~0.1 µg/mL
B2: 56H3 (antibody, human IgG1, V domains shown)
VH: QEQLVESGGGLVQPEGSLTLTCTASEFSFSNNYYMSWVRQAPGKGLEWLGSIGIGSGITDYASWAKGRFTISKASSTTVTLQMTTLTAADTAIYFCARWTSGGGGFGLWGPGTLVTVSS
VL: QVLTQTSSPVSAAVGGTVTINCQSSQTIYSDYLFWYQQKPGQPPKLLIYQTSTLASGVPSRFSGSGSGTQFTLTISGVQCDDAATYYCQGYYSGYIWTFGGGTEVVVN

- binding result [1]: no binding
- binding result [2]: no binding
- binding result [3]: no binding
- binding result [4]: no binding
- IC50 (nM), Promega PD-1/PD-L1 blockade reporter assay [5]: 0.29 nM
- IC50 (nM), Promega PD-1/PD-L1 blockade reporter assay, another assay [6]: 0.46 nM
- IC50 [7]: 2300 pM
B3: 74A9 (antibody, human IgG1, V domains shown)
VH: QSVEESGGRLVTPGTPLTLTCAVSGFSLSTYALGWVRQAPGKGLEWIGSISIGGATYYASWAKGRFTISKTSTTVDLKIASPTTEDTATYFCARNVDSIYLDAFHTWGPGTLVTVSL
VL: DIVMTQTPASVEAAVGGTVTIKCQASQNIYNNLAWYQQKPGQPPKLLIYRASTLASGVPSRFKGSGSGTEYTLTISDLECDDAATYYCQTYYLTTTTNAFGGGTEVVVK
